Data as given in patent publication US20200138970A1 (Bayer, published 2020).
Positions count from the first letter of the chain named.

T1: human B7H3 on cancer cell lines (human, UniProt Q5ZPR3 29-534)
T1 sequence (looked up): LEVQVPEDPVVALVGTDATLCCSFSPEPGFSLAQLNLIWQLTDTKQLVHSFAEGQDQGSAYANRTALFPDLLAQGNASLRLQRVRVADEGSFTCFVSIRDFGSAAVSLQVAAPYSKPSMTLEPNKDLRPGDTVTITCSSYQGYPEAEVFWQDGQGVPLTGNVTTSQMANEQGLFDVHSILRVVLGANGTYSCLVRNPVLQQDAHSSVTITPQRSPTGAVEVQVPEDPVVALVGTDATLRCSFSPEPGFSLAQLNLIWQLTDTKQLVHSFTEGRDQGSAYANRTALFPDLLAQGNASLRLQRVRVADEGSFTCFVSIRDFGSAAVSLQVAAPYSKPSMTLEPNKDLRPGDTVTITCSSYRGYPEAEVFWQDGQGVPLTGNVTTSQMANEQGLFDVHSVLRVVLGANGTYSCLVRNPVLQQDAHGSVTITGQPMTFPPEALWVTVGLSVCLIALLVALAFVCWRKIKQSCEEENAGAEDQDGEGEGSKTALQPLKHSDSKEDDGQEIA

T2: human B7H2 (RnDSystems, 8206-B7) (human, UniProt O75144 19-258, limits assumed)
T2 construct: Bought protein; His tag implied by anti-His detection
T2 sequence (looked up): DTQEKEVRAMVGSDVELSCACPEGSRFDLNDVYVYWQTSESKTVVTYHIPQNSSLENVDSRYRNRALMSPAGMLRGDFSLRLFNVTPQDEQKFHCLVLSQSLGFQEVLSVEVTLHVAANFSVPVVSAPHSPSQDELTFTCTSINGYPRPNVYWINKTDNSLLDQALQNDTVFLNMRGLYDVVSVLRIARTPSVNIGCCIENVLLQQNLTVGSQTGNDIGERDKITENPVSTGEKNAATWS

T3: TPP-3760, B7H3 long, human (R&D Systems 2318-B3/CF) (human, UniProt Q5ZPR3 27-461)
T3 construct: Bought protein; also called B7H3 (RnDSystems, 2318-B3-050/CF); human B7H3
T3 sequence: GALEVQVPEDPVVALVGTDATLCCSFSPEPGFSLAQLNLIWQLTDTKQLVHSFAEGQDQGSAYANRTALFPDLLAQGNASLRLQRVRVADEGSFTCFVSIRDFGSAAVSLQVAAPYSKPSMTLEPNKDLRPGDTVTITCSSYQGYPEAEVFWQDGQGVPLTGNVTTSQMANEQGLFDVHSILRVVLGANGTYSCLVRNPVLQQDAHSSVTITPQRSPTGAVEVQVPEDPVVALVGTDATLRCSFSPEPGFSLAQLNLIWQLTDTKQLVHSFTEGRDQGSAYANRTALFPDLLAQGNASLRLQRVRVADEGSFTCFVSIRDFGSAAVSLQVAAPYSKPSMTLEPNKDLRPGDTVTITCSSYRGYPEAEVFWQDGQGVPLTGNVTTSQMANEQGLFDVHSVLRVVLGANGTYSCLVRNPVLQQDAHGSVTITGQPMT

T4: human B7H4 (RnDSystems, 6576-B7) (human, UniProt Q7Z7D3 29-258, limits assumed)
T4 construct: Bought protein; His tag implied by anti-His detection
T4 sequence (looked up): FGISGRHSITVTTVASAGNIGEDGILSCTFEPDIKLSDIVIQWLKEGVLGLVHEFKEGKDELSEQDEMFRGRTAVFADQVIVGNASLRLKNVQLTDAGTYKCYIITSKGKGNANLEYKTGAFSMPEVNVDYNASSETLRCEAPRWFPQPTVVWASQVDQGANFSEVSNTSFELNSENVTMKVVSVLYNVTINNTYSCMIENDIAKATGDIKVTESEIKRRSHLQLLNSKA

B1: TPP-6502 (antibody, human IgG1, lambda, V domains shown)
VH: EVQLLESGGGLVQPGGSLRLSCAASGFTFSTYGMHWVRQAPGKGLEWVSAISGSGGSTYYADSVKGRFTISRDNSKNTLYLQMNSLRAEDTAVYYCTRGYYYYGMDVWGQGTLVTVSS
VL: QSVLTQPPSASGTPGQRVTISCSGGSSNIGSNPVNWYQQLPGTAPKLLIYGNSKRPSGVPDRFSGSKSGTSASLAISGLRSEDEADYYCQSYDSSLSGWVFGGGTKLTVLG
B2: TPP-6499 (antibody, human IgG1, lambda, V domains shown)
VH: EVQLLESGGGLVQPGGSLRLSCAASGFTFRDFYMNWIRQAPGKGLEWVSSISASGKYTYYADSVKGRFTISRDNSKNTLYLQMNSLRAEDTAVYYCAREWGYCTNDVCRNWFDPWGQGTLVTVSS
VL: B1 VL with S26Y, I29V, S31G, P33N, K54N, W99S
B3: TPP-6501 (antibody, human IgG1, lambda, V domains shown)
VH: B1 VH with T31S, T97A, Y100S, Y101N, Y103L
VL: QSVLTQPPSASGTPGQRVTISCSGSSSNIGRNIVNWYQQLPGTAPKLLIYRSNQRPSGVPDRFSGSKSGTSASLAISGLRSEDEADYYCQTWGTGWVFGGGTKLTVLG
B4: TPP-6515 (antibody, human IgG1, lambda, V domains shown)
VH: B1 VH with T31S, A40V, S57T, T97A, Y100G, Y102H, Y103F, G104L, M105F, V107Y
VL: B1 VL with G25S, P33T, G51R, S53D, K54Q, P56L, S57L

Target: T1, human B7H3 on cancer cell lines
Assay: cell-based or functional assay

Row | Molecule | NCI-H292 CTG (IC50 M) | U251 CTG (IC50 M)
1 | 208-isotype control (antibody) | 137 nM | 77.6 nM

Target: T1, human B7H3 on cancer cell lines
Assay: flow cytometry on A498 cells, dose response from 10 ug/mL (1:5 dilution), FITC secondary antibody
Description: A dose response curve (1:5 dilution) was generated. Following incubation, 200 μL of ice-cold FACS buffer were pipetted in and the cell suspension was centrifuged at 4° C., 400 g for 4 min. The cell pellet was washed with 300 μL of ice-cold FACS buffer prior to resuspending the pellet obtained in 100 μL of FACS buffer and again incubating for 30 min on ice with secondary antibody (monoclonal anti-kappa light chains FITC antibody, Sigma, No. SAB4700605) in a 1:10 dilution. Subsequently, the cells were washed with ice-cold FACS buffer and adjusted to a cell concentration of 0.5×10⁶ cells/mL before carrying out the flow cytometry using a Guava flow cytometer (Millipore). Propidium iodide (final concentration 1 μg/mL) was used for the live staining. With the aid of the background-corrected geometric mean fluorescence values, the IC50 value of the antibody to be investigated was determined.

Row | Molecule | EC50
2 | B1 | 0.143 nM
3 | B2 | 0.847 nM
4 | B3 | 1.23 nM
5 | B4 | 0.661 nM

Target: T2, human B7H2 (RnDSystems, 8206-B7)
Assay: ELISA, IgG captured on anti-human IgG Fc, antigen 37 ng/ml, anti-His HRP detection
Description: (§1) Binding of the antibodies to human B7H3 and to human B7H2 and B7H4 was characterized using ELISAs. […] After washing once with PSB, 0.05% Tween, the plate was blocked with 100% Smart Block (Candor) for one hour at 37° C. The antibody to be tested was then attached to the plate (2 μg/ml IgG in PBS, 0.05% Tween, 10% Smart Block; 1 hour, room temperature). […] After washing three times, the plate was incubated with Amplex Red for 30 minutes and then read.

Row | Molecule | Quotient signal (B7)/signal (buffer)
6 | B1 | < 1.5
7 | B2 | < 1.5
8 | B3 | < 1.5
9 | B4 | < 1.5

Target: T3, TPP-3760, B7H3 long, human (R&D Systems …)
Assay: as above
Description: as §1

Row | Molecule | Quotient signal (B7)/signal (buffer)
10 | B1 | 126
11 | B2 | 109
12 | B3 | 118
13 | B4 | 116

Target: T4, human B7H4 (RnDSystems, 6576-B7)
Assay: as above
Description: as §1

Row | Molecule | Quotient signal (B7)/signal (buffer)
14 | B1 | < 1.5
15 | B2 | < 1.5
16 | B3 | < 1.5
17 | B4 | < 1.5
